The target in experiment [1] is FcγRIIb receptor (UniProt P31994). Description: cell based competitive TR-FRET (CisBio); displacement of a fluorescently labeled antibody from the cell surface receptor.
Experiment [2] shares this target. Description: competitive TR-FRET.
The next experiment concerns the target FcγRIIa (UniProt P12318). Description: competitive TR-FRET.
The target in another experiment is FcγRIIIa (UniProt P08637). Nature of the experiment: competitive TR-FRET.

Regarding “Construct 4-FcγRIIb+ mutant (from UniProt P01857 27-328; P0DOX5 223-448)”, the fold increase in binding against the Construct 4 (SIF3) control with FcγRIIb receptor [1] is above 300 fold. Also, the EC50 amounted to 0.0165 nM with FcγRIIb receptor [2], 0.126 nM with FcγRIIa and 26.7 nM in the experiment with FcγRIIIa.

These data come from patent US20220049019A1.
